Measurements from the supplement of paper PMC5998384.

How the values were obtained:
HeLa Kyoto [1] = test: solubility change mitosis vs G1/S (difference of NP-40 vs SDS log2 ratios) (log2 ratio difference); higher = more soluble in mitosis
HeLa Kyoto [2] = test: melting temperature (median over replicates), in situ; higher = more thermally stable
HeLa Kyoto [3] = test: thermal stability score vs G1/S (z-score of summed log2 fold changes over temperatures); higher = more thermally stable than in G1/S
HeLa Kyoto [4] = test: solubility in G1/S (NP-40 vs SDS abundance) (log2 ratio); higher = more soluble; conditions: cell cycle stage: G1/S
[5] = cell cycle stage: early G1 (4.5 h after nocodazole release)
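Wherever melting temperature (median over replicates), in situ is given: HeLa Kyoto cells synchronized by double thymidine or nocodazole block, proteins quantified by TMT10plex mass spectrometry, three independent biological replicates.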
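Wherever solubility change mitosis vs G1/S (difference of NP-40 vs SDS log2 ratios) is given: synchronized HeLa Kyoto cells (double thymidine block for G1/S, nocodazole release for mitosis), protein amounts in NP-40 versus SDS lysates quantified by mass spectrometry, three biological replicates.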
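Wherever solubility in G1/S (NP-40 vs SDS abundance) is given: HeLa Kyoto cells arrested at G1/S by double thymidine block, proteins quantified by TMT10plex mass spectrometry in mild NP-40 versus SDS extracts, three biological replicates.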
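Wherever thermal stability score vs G1/S (z-score of summed log2 fold changes over temperatures) is given: synchronized HeLa Kyoto cells, proteins quantified by TMT10plex mass spectrometry, three biological replicates, mitosis taken 0.5 h after nocodazole release, G1/S directly after double thymidine block.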

Substance	solubility change mitosis (log2) (HeLa Kyoto [1])	melting temperature (HeLa Kyoto [2]; cell cycle stage: G1/S) [°C]	melting temperature (HeLa Kyoto [2]; cell cycle stage: mitosis) [°C]	thermal stability score (HeLa Kyoto [3]; [5])	thermal stability score (HeLa Kyoto [3]; cell cycle stage: mitosis)	solubility in G1/S (log2) (HeLa Kyoto [4])
MTLDVGPEDELPDWAAAKEFYQKYDPKDVIGRGVSSVVRRCVHRATGHEFAVKIMEVTAERLSPEQLEEVREATRRETHILRQVAGHPHIITLIDSYESSSFMFLVFDLMRKGELFDYLTEKVALSEKETRSIMRSLLEAVSFLHANNIVHRDLKPENILLDDNMQIRLSDFGFSCHLEPGEKLRELCGTPGYLAPEILKCSMDETHPGYGKEVDLWACGVILFTLLAGSPPFWHRRQILMLRMIMEGQYQFSSPEWDDRSSTVKDLISRLLQVDPEARLTAEQALQHPFFERCEGSQPWNLTPRQRFRVAVWTVLAAGRVALSTHRVRPLTKNALLRDPYALRSVRHLIDNCAFRLYGHWVKKGEQQNRAALFQHRPPGPFPIMGPEEEGDSAAITEDEAVLVLG [PHKG2]	-0.298	50.4	50.7	-0.266	0.0815	-0.0283
MATNWGSLLQDKQQLEELARQAVDRALAEGVLLRTSQEPTSSEVVSYAPFTLFPSLVPSALLEQAYAVQMDFNLLVDAVSQNAAFLEQTLSSTIKQDDFTARLFDIHKQVLKEGIAQTVFLGLNRSDYMFQRSADGSPALKQIEINTISASFGGLASRTPAVHRHVLSVLSKTKEAGKILSNNPSKGLALGIAKAWELYGSPNALVLLIAQEKERNIFDQRAIENELLARNIHVIRRTFEDISEKGSLDQDRRLFVDGQEIAVVYFRDGYMPRQYSLQNWEARLLLERSHAAKCPDIATQLAGTKKVQQELSRPGMLEMLLPGQPEAVARLRATFAGLYSLDVGEEGDQAIAEALAAPSRFVLKPQREGGGNNLYGEEMVQALKQLKDSEERASYILMEKIEPEPFENCLLRPGSPARVVQCISELGIFGVYVRQEKTLVMNKHVGHLLRTKAIEHADGGVAAGVAVLDNPYPV [GSS]	-0.0933	58.6	58.6	-2.26	-1.74	0.238
MMEEEELEFVEELEAVLQLTPEVQLAIEQVFPSQDPLDRADFNAVEYINTLFPTEQSLANIDEVVNKIRLKIRRLDDNIRTVVRGQTNVGQDGRQALEEAQKAIQQLFGKIKDIKDKAEKSEQMVKEITRDIKQLDHAKRHLTTSITTLNHLHMLAGGVDSLEAMTRRRQYGEVANLLQGVMNVLEHFHKYMGIPQIRQLSERVKAAQTELGQQILADFEEAFPSQGTKRPGGPSNVLRDACLVANILDPRIKQEIIKKFIKQHLSEYLVLFQENQDVAWLDKIDRRYAWIKRQLVDYEEKYGRMFPREWCMAERIAVEFCHVTRAELAKIMRTRAKEIEVKLLLFAIQRTTNFEGFLAKRFSGCTLTDGTLKKLESPPPSTNPFLEDEPTPEMEELATEKGDLDQPKKPKAPDNPFHGIVSKCFEPHLYVYIESQDKNLGELIDRFVADFKAQGPPKPNTDEGGAVLPSCADLFVYYKKCMVQCSQLSTGEPMIALTTIFQKYLREYAWKILSGNLPKTTTSSGGLTISSLLKEKEGSEVAKFTLEELCLICNILSTAEYCLATTQQLEEKLKEKVDVSLIERINLTGEMDTFSTVISSSIQLLVQDLDAACDPALTAMSKMQWQNVEHVGDQSPYVTSVILHIKQNVPIIRDNLASTRKYFTQFCVKFANSFIPKFITHLFKCKPISMVGAEQLLLDTHSLKMVLLDLPSISSQVVRKAPASYTKIVVKGMTRAEMILKVVMAPHEPLVVFVDNYIKLLTDCNTETFQKILDMKGLKRSEQSSMLELLRQRLPAPPSGAESSGSLSLTAPTPEQESSRIRKLEKLIKKRL [VPS53]	-0.136	50	49.7	0.237	1.04	0.196
MAAGIVASRRLRDLLTRRLTGSNYPGLSISLRLTGSSAQEEASGVALGEAPDHSYESLRVTSAQKHVLHVQLNRPNKRNAMNKVFWREMVECFNKISRDADCRAVVISGAGKMFTAGIDLMDMASDILQPKGDDVARISWYLRDIITRYQETFNVIERCPKPVIAAVHGGCIGGGVDLVTACDIRYCAQDAFFQVKEVDVGLAADVGTLQRLPKVIGNQSLVNELAFTARKMMADEALGSGLVSRVFPDKEVMLDAALALAAEISSKSPVAVQSTKVNLLYSRDHSVAESLNYVASWNMSMLQTQDLVKSVQATTENKELKTVTFSKL [ECH1]	-0.00393	53.4	53.5	-1.52	-2.22	0.165
MSKLKSSESVRVVVRCRPMNGKEKAASYDKVVDVDVKLGQVSVKNPKGTAHEMPKTFTFDAVYDWNAKQFELYDETFRPLVDSVLQGFNGTIFAYGQTGTGKTYTMEGIRGDPEKRGVIPNSFDHIFTHISRSQNQQYLVRASYLEIYQEEIRDLLSKDQTKRLELKERPDTGVYVKDLSSFVTKSVKEIEHVMNVGNQNRSVGATNMNEHSSRSHAIFVITIECSEVGLDGENHIRVGKLNLVDLAGSERQAKTGAQGERLKEATKINLSLSALGNVISALVDGKSTHIPYRDSKLTRLLQDSLGGNAKTVMVANVGPASYNVEETLTTLRYANRAKNIKNKPRVNEDPKDALLREFQEEIARLKAQLEKRSIGRRKRREKRREGGGSGGGGEEEEEEGEEGEEEGDDKDDYWREQQEKLEIEKRAIVEDHSLVAEEKMRLLKEKEKKMEDLRREKDAAEMLGAKIKAMESKLLVGGKNIVDHTNEQQKILEQKRQEIAEQKRREREIQQQMESRDEETLELKETYSSLQQEVDIKTKKLKKLFSKLQAVKAEIHDLQEEHIKERQELEQTQNELTRELKLKHLIIENFIPLEEKSKIMNRAFFDEEEDHWKLHPITRLENQQMMKRPVSAVGYKRPLSQHARMSMMIRPEARYRAENIVLLELDMPSRTTRDYEGPAIAPKVQAALDAALQDEDEIQVDASSFESTANKKSKARPKSGRKSGSSSSSSGTPASQLYPQSRGLVPK [KIF3B]	-0.0759	50.3	50.3	0.792	0.328	0.0133
MEQPKGVDWTVIILTCQYKDSVQVFQRELEVRQKREQIPAGTLLLAVEDPEKRVGSGGATLNALLVAAEHLSARAGFTVVTSDVLHSAWILILHMGRDFPFDDCGRAFTCLPVENPEAPVEALVCNLDCLLDIMTYRLGPGSPPGVWVCSTDMLLSVPANPGISWDSFRGARVIALPGSPAYAQNHGVYLTDPQGLVLDIYYQGTEAEIQRCVRPDGRVPLVSGVVFFSVETAERLLATHVSPPLDACTYLGLDSGARPVQLSLFFDILHCMAENVTREDFLVGRPPELGQGDADVAGYLQSARAQLWRELRDQPLTMAYVSSGSYSYMTSSASEFLLSLTLPGAPGAQIVHSQVEEQQLLAAGSSVVSCLLEGPVQLGPGSVLQHCHLQGPIHIGAGCLVTGLDTAHSKALHGRELRDLVLQGHHTRLHGSPGHAFTLVGRLDSWERQGAGTYLNVPWSEFFKRTGVRAWDLWDPETLPAEYCLPSARLFPVLHPSRELGPQDLLWMLDHQEDGGEALRAWRASWRLSWEQLQPCLDRAATLASRRDLFFRQALHKARHVLEARQDLSLRPLIWAAVREGCPGPLLATLDQVAAGAGDPGVAARALACVADVLGCMAEGRGGLRSGPAANPEWMRPFSYLECGDLAAGVEALAQERDKWLSRPALLVRAARHYEGAGQILIRQAVMSAQHFVSTEQVELPGPGQWVVAECPARVDFSGGWSDTPPLAYELGGAVLGLAVRVDGRRPIGARARRIPEPELWLAVGPRQDEMTVKIVCRCLADLRDYCQPHAPGALLKAAFICAGIVHVHSELQLSEQLLRTFGGGFELHTWSELPHGSGLGTSSILAGTALAALQRAAGRVVGTEALIHAVLHLEQVLTTGGGWQDQVGGLMPGIKVGRSRAQLPLKVEVEEVTVPEGFVQKLNDHLLLVYTGKTRLARNLLQDVLRSWYARLPAVVQNAHSLVRQTEECAEGFRQGSLPLLGQCLTSYWEQKKLMAPGCEPLTVRRMMDVLAPHVHGQSLAGAGGGGFLYLLTKEPQQKEALEAVLAKTEGLGNYSIHLVEVDTQGLSLKLLGTEASTCCPFP [FUK]	-0.182	56.6	54.8	-0.477	-1.02	-0.0525
GNL2	1.08	51.2	52.7	4.89	6.37	-2.3
